Residue numbers refer to the chain shown, from its start. Like-named read-outs stand apart in the source and are kept apart here.
Legend:
[1] = target: T1, human ROR1 (on cells) (human, UniProt Q01973 30-937); experiment: cell-based or functional assay
[2] = target: T1, human ROR1 (on cells); experiment: cell-based or functional assay; remark: listed apart in the source
[3] = target: T2, mouse ROR1 (on 4T1 cells engineered to overexpress it) (mouse, UniProt Q9Z139 30-937); experiment: flow cytometry; reference: human ROR1 on MDA-MB-231 cells
T2 construct: whole, on cells; also called muROR1; mROR1

[4] = target: T3, cynomolgus CD3 (on cynomolgus pan-T cells) (cynomolgus, UniProt Q95LI5 22-198); experiment: flow cytometry, cynomolgus pan-T cells
T3 construct: whole, on cells
T3 sequence (Q95LI5 22-198): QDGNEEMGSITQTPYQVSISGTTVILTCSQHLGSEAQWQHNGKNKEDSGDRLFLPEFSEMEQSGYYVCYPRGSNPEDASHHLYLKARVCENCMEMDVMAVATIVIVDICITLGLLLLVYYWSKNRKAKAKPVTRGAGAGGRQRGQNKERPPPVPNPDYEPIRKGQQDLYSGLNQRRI
Protocol: (§1) After 15-minutes of incubation at room temperature, the cells were washed twice with 200 μL of PBS by centrifugation at 500×g for 5 minutes at room temperature and resuspended in […] of 10% goat serum in BD staining buffer (BD Biosciences, Cat No: 554657). […] The plates were then covered with foil to avoid direct light and incubated for 60 minutes at 4° C. […] After incubating for 30 minutes at 4° C., the cells were washed twice with 200 μL of PBS by centrifugation at 500×g for 5 minutes at room temperature and resuspended into 100 μL of fixation buffer (BioLegend, Cat No: 420801). The samples were then analyzed on a flow cytometer for binding signal using FlowJo software. ROR and CD3 binding EC₅₀s (concentration vs mean fluorescence intensity (MFI)) for reference molecules and test bispecific TCEs were obtained using 4-parameter non-linear regression curve fitting in GraphPad Prism.

[5] = target: T2, mouse ROR1 (on 4T1 cells engineered to …); experiment: flow cytometry, 4T1 cells overexpressing mouse ROR1
Protocol: as §1

[6] = target: T1, human ROR1 (on cells); experiment: cell-based or functional assay; remark: listed apart in the source
[7] = target: T1, human ROR1 (on cells); experiment: flow cytometry, ROR1+ MDA-MB-231 cells
Protocol: as §1

[8] = target: T4, human CD3 (on Jurkat T cells or human CD8+ T cells) (human, UniProt P07766 23-207; P09693 23-182; P04234 22-171; P20963 22-164); experiment: flow cytometry, human CD8+ T cells
T4 construct: Entries are printed with signal peptides; also called huCD3; CD3ε
T4 sequence (P07766 23-207 limits assumed, chain 1 of 4): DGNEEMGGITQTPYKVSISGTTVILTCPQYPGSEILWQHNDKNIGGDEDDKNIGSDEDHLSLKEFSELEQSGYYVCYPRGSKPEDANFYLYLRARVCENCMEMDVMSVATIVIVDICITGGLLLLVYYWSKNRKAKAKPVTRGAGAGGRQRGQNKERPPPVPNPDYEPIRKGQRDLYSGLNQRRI
T4 sequence (P09693 23-182 limits assumed, chain 2 of 4): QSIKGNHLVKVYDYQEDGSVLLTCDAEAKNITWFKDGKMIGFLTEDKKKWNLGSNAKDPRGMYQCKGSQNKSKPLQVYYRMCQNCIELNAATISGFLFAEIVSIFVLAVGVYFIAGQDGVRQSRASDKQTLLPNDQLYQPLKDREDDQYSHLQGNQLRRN
T4 sequence (P04234 22-171 limits assumed, chain 3 of 4): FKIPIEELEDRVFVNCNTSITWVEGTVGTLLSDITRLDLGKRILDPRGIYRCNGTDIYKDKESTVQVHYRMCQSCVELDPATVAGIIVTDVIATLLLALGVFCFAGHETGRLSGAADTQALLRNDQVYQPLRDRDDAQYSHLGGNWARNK
T4 sequence (P20963 22-164 limits assumed, chain 4 of 4): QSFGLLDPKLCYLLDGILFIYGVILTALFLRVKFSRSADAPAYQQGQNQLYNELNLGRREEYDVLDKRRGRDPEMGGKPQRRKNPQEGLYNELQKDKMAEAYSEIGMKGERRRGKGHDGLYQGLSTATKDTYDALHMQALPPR
Protocol: as §1

[9] = target: T1, human ROR1 (on cells); experiment: cell-based or functional assay; remark: listed apart in the source
[10] = target: T1, human ROR1 (on cells); experiment: cell-based or functional assay; remark: listed apart in the source
[11] = target: T1, human ROR1 (on cells); experiment: flow cytometry, MDA-MB-231 cells
Protocol: as §1, with “After washing twice with 200 μL of phosphate buffered saline (PBS) by centrifugation at 500×g for 5 minutes at room temperature, the cells were resuspended in 100 μL of Live/Dead fixable green working buffer (ThermoFisher Scientific, Cat No: L23101; one vial of Live/Dead fixable green powder was dissolved into 50 μL of DMSO and 1 μL of dissolved Live/Dead fixable green was added to 1 mL of PBS to prepare the working buffer). After 15-minutes” for “After 15-minutes”

[12] = target: T1, human ROR1 (on cells); experiment: cell-based or functional assay; remark: listed apart in the source
[13] = target: T1, human ROR1 (on cells); experiment: cell-based or functional assay; remark: listed apart in the source
[14] = target: T3, cynomolgus CD3 (on cynomolgus pan-T …); experiment: flow cytometry, cynomolgus pan-T cells; remark: listed apart in the source
Protocol: as §1, with “After washing twice with 200 μL of phosphate buffered saline (PBS) by centrifugation at 500×g for 5 minutes at room temperature, the cells were resuspended in 100 μL of Live/Dead fixable green working buffer (ThermoFisher Scientific, Cat No: L23101; one vial of Live/Dead fixable green powder was dissolved into 50 μL of DMSO and 1 μL of dissolved Live/Dead fixable green was added to 1 mL of PBS to prepare the working buffer). After 15-minutes” for “After 15-minutes”

[15] = target: T1, human ROR1 (on cells); experiment: cell-based or functional assay; remark: listed apart in the source
[16] = target: T4, human CD3 (on Jurkat T cells or human …); experiment: flow cytometry, Jurkat T cells
Protocol: as §1, with “After washing twice with 200 μL of phosphate buffered saline (PBS) by centrifugation at 500×g for 5 minutes at room temperature, the cells were resuspended in 100 μL of Live/Dead fixable green working buffer (ThermoFisher Scientific, Cat No: L23101; one vial of Live/Dead fixable green powder was dissolved into 50 μL of DMSO and 1 μL of dissolved Live/Dead fixable green was added to 1 mL of PBS to prepare the working buffer). After 15-minutes” for “After 15-minutes”

[17] = target: T1, human ROR1 (on cells); experiment: flow cytometry, MDA-MB-231 cells; reference: Ref. Frz-binding TCE
Protocol: as §1, with “After washing twice with 200 μL of phosphate buffered saline (PBS) by centrifugation at 500×g for 5 minutes at room temperature, the cells were resuspended in 100 μL of Live/Dead fixable green working buffer (ThermoFisher Scientific, Cat No: L23101; one vial of Live/Dead fixable green powder was dissolved into 50 μL of DMSO and 1 μL of dissolved Live/Dead fixable green was added to 1 mL of PBS to prepare the working buffer). After 15-minutes” for “After 15-minutes”

B1: 82H02 TCE #4 (sequence optimized 82H02 bispecific TCE in Format 1A, low ROR1 / low CD3 affinity) (bispecific antibody)
heavy 1: EVQLVESGGGLVQPGGSLKLSCAASGFTFNTYAMNWVRQASGKGLEWVGRIRSKYNNYATYYADSVKGRFTISRDDSKNTLYLQMNSLKTEDTAVYYCVRHGNFGNSYVSWFAYWGQGTMVTVSSASTKGPSVFPLAPSSKSTSGGTAALGCLVKDYFPEPVTVSWNSGALTSGVHTFPAVLQSSGLYSLSSVVTVPSSSLGTQTYICNVNHKPSNTKVDKKVEPKSCDKTHTCPPCPAPEAAGGPSVFLFPPKPKDTLMISRTPEVTCVVVDVSHEDPEVKFNWYVDGVEVHNAKTKPREEQYNSTYRVVSVLTVLHQDWLNGKEYKCKVSNKALGAPIEKTISKAKGQPFRPEVHLLPPSREEMTKNQVSLTCLARGFYPKDIAVEWESNGQPENNYKTTPSRQEPSQGTTTFAVTSKLTVDKSRWQQGNVFSCSVMHEALHNHYTQKTISLSPGK
heavy 2: EIVLTQSPATLSLSPGERATLSCRASQSVSSYLAWYQQKPGQAPRLLIYDASNRATGIPARFSGSGSGTDFTLTISSLEPEDFAVYYCQQRSNWPPFTFGQGTRLEIKGGGGSGGGGSGGGGSGGGGSEVQLLESGGGLVQPGGSLRLSCAASGFTFTSYAMSWVRQAPGKGLEWVSTISGSGGGTYYTDSVKGRFTISRDNSKNTLYLQMNSLRAEDTAVYYCAQGSSIFDYWGQGTLVTVSSEPKSSDKTHTCPPCPAPEAAGGPSVFLFPPKPKDTLMISRTPEVTCVVVDVSHEDPEVKFNWYVDGVEVHNAKTKPREEQYNSTYRVVSVLTVLHQDWLNGKEYKCKVSNKALGAPIEKTISKAKGQPREPQVYTLPPPSEELALNELVTLTCLVKGFYPSDIAVEWLQGSQELPREKYLTWAPVLDSDGSFFLYSILRVAAEDWKKGDTFSCSVMHEALHNHYTQKSLDRSPGKGGGGSGGGGSGGGGSGGGGSEIVLTQSPATLSLSPGERATLSCRASQSVSSYLAWYQQKPGQAPRLLIYDASNRATGIPARFSGSGSGTDFTLTISSLEPEDFAVYYCQQRSNWPPFTFGQGTRLEIKGGGGSGGGGSGGGGSGGGGSEVQLLESGGGLVQPGGSLRLSCAASGFTFTSYAMSWVRQAPGKGLEWVSTISGSGGGTYYTDSVKGRFTISRDNSKNTLYLQMNSLRAEDTAVYYCAQGSSIFDYWGQGTLVTVSS
light: QTVVTQEPSLTVSPGGTVTLTCASSTGAVTTSNYANWVQQKPGQAPRALIGGTNKRAPGTPARFSGSLLGGKAALTLSGVQPEDEAEYYCALWYSNLWVFGGGTKLTVLGQPKAAPSVTLFPPSSEELQANKATLVCLISDFYPGAVTVAWKADSSPVKAGVETTTPSKQSNNKYAASSYLSLTPEQWKSHRSYSCQVTHEGSTVEKTVAPTECS
notes: also called 82H02 #4; 82H02 VL1.06x1F3.5-VH1.01-VL1.01
IFNγ release EC50, PBMCs: MDA-MB-231 [1]: 509 nM | Max IFNγ, PBMCs: MDA-MB-231 [1]: 764 pg/mL | IFNγ release AUC, PBMCs: MDA-MB-231-0.2 [2]: 1.09e+06 | IFNγ release AUC, PBMCs: MDA-MB-231-0.4 [2]: 1.42e+06 | IFNγ release AUC, PBMCs: MDA-MB-231-0.6 [2]: 8.23e+06 | IFNγ release AUC, PBMCs: MDA-MB-231-1.3 [2]: 4.11e+06 | IFNγ release AUC, PBMCs: MDA-MB-231-7 [2]: 4.14e+06 | IFNγ release EC50, PBMCs: MDA-MB-231-0.2 [2]: 0.28 nM | IFNγ release EC50, PBMCs: MDA-MB-231-0.4 [2]: 0.16 nM | IFNγ release EC50, PBMCs: MDA-MB-231-0.6 [2]: 0.121 nM | IFNγ release EC50, PBMCs: MDA-MB-231-1.3 [2]: 0.0351 nM | IFNγ release EC50, PBMCs: MDA-MB-231-7 [2]: 0.0309 nM | IFNγ release Emax, PBMCs: MDA-MB-231-0.2 [2]: 1730% | IFNγ release Emax, PBMCs: MDA-MB-231-0.4 [2]: 1840% | IFNγ release Emax, PBMCs: MDA-MB-231-0.6 [2]: 2780% | IFNγ release Emax, PBMCs: MDA-MB-231-1.3 [2]: 4560% | IFNγ release Emax, PBMCs: MDA-MB-231-7 [2]: 4480% | fold difference in apparent ROR1 binding affinity between human and mouse ROR1 [3]: ~6.5 fold | EC50 [4]: 27.7 nM | EC50 [5]: 496 nM | TDCC EC50, PBMCs: MDA-MB-231 [6]: 168 nM | EC50 [7]: 76.5 nM | EC50 [8]: 20.4 nM | TDCC AUC, PBMCs: MDA-MB-231-0.2 [9]: 25900 | TDCC AUC, PBMCs: MDA-MB-231-0.4 [9]: 41900 | TDCC AUC, PBMCs: MDA-MB-231-0.6 [9]: 46300 | TDCC AUC, PBMCs: MDA-MB-231-1.3 [9]: 58900 | TDCC AUC, PBMCs: MDA-MB-231-7 [9]: 68300 | TDCC EC50, PBMCs: MDA-MB-231-0.2 [9]: 0.0223 nM | TDCC EC50, PBMCs: MDA-MB-231-0.4 [9]: 0.0196 nM | TDCC EC50, PBMCs: MDA-MB-231-0.6 [9]: 0.0152 nM | TDCC EC50, PBMCs: MDA-MB-231-1.3 [9]: 0.0112 nM | TDCC EC50, PBMCs: MDA-MB-231-7 [9]: 0.00653 nM | TDCC Emax, PBMCs: MDA-MB-231-0.2 [9]: 27.4% | TDCC Emax, PBMCs: MDA-MB-231-0.4 [9]: 45% | TDCC Emax, PBMCs: MDA-MB-231-0.6 [9]: 51.5% | TDCC Emax, PBMCs: MDA-MB-231-1.3 [9]: 60.4% | TDCC Emax, PBMCs: MDA-MB-231-7 [9]: 70.3%

B2: bispecific TCE 69A02 in Format 1A (bispecific antibody)
heavy 1: EVQLVESGGGLVQPGGSLRLSCAASGFTFNTYAMNWVRQAPGKGLEWVARIRSKYNNYATYYADSVKDRFTISRDDSKNTLYLQMNSLRAEDTAVYYCVRHGNFGNSYVSWFAYWGQGTMVTVSSASTKGPSVFPLAPSSKSTSGGTAALGCLVKDYFPEPVTVSWNSGALTSGVHTFPAVLQSSGLYSLSSVVTVPSSSLGTQTYICNVNHKPSNTKVDKKVEPKSCDKTHTCPPCPAPPVAGPSVFLFPPKPKDTLMISRTPEVTCVVVDVSHEDPEVKFNWYVDGVEVHNAKTKPREEQYNSTYRVVSVLTVLHQDWLNGKEYKCAVSNKALAAPIEKTISKAKGQPFRPEVHLLPPSREEMTKNQVSLTCLARGFYPKDIAVEWESNGQPENNYKTTPSRQEPSQGTTTFAVTSKLTVDKSRWQQGNVFSCSVMHEALHNHYTQKTISLSPGK
heavy 2: ETTLTQSPATLSVSPGETATLSCRASQSVSSNLAWYQQKPGQAPRLLIYGASTRATGIPATFSGSGSGTEFTLTISSLQSEDFAIYYCQQYKNWPPAFGGGTELEIKGGGGSGGGGSGGGGSGGGGSQVTLKESGPTLVKPTQTLTLTCSFSGFSITTSGVSVGWIRQPPGKALEWLALIYWDDDKRYSPSLKSRLTITRDTSKNQVVLTMTNMDPVDTATYYCAHAPRYTPGGYFDYWGQGTLVTVSSEPKSSDKTHTCPPCPAPPVAGPSVFLFPPKPKDTLMISRTPEVTCVVVDVSHEDPEVKFNWYVDGVEVHNAKTKPREEQYNSTYRVVSVLTVLHQDWLNGKEYKCAVSNKALAAPIEKTISKAKGQPREPQVYTLPPPSEELALNELVTLTCLVKGFYPSDIAVEWLQGSQELPREKYLTWAPVLDSDGSFFLYSILRVAAEDWKKGDTFSCSVMHEALHNRFTQKSLDRSPGKGGGGSGGGGSGGGGSGGGGSETTLTQSPATLSVSPGETATLSCRASQSVSSNLAWYQQKPGQAPRLLIYGASTRATGIPATFSGSGSGTEFTLTISSLQSEDFAIYYCQQYKNWPPAFGGGTELEIKGGGGSGGGGSGGGGSGGGGSQVTLKESGPTLVKPTQTLTLTCSFSGFSITTSGVSVGWIRQPPGKALEWLALIYWDDDKRYSPSLKSRLTITRDTSKNQVVLTMTNMDPVDTATYYCAHAPRYTPGGYFDYWGQGTLVTVSS
light: B1 light with T2A, A23R, A48G
notes: also called 69A02 TCE 1A; 69A02x1F3.5
TDCC EC50, PBMCs + ROR1+ MDA-MB-231 cells [10]: 0.0194 nM | EC50 [11]: 0.23 nM | IFNγ release EC50, PBMCs + ROR1+ MDA-MB-231 cells [12]: 0.0876 nM | EC50 of target cell killing (TDCC), human CD8+ T cells + ROR1+ MDA-MB-231 [13]: 0.0202 nM | EC50 [14]: 13.4 nM | EC50 of IFNγ release, human CD8+ T cells + ROR1+ MDA-MB-231 [15]: 0.0215 nM | EC50 [16]: 10.4 nM | fold higher apparent binding affinity [17]: > 30 fold
